Test [1] deals with T3 SAMase (Enterobacteria phage T3, UniProt P07693). The conditions noted are these: 2 mM SAM, 50 mM NaPi pH 7.4, 25°C.
In test [2] the target is His6-tagged Svi3-3_d19 (environmental phage). Description: SEC; HiLoad 16/60 Superdex 75 pg, 25 mM Tris-HCl, 150 mM NaCl, pH 8.0; His-tagged protein eluted from Ni Sepharose. (Size exclusion chromatography separates by hydrodynamic size, large species first.)
The target is the same in test [3]. As to the kind of experiment: SEC-SAXS; His6-tagged Svi3-3_d19 at 10-13 mg/ml with and without 5 mM SAM; Shodex KW403 column, 25 mM Tris-HCl pH 8.0, 150 mM NaCl.
Test [4] has as its target Svi3-3_d19 (N-terminally truncated 146 amino acid construct of SAMase Svi3-3, hexahistidine tag removed) (environmental phage). Description: crystal structure; Svi3-3_d19 (10 mg/ml) crystallised with 5 mM SAM (product MTA bound), with 5 mM SAH, or without ligand; sitting drop, 293 K, 0.4-0.6 M ammonium phosphate; space group F4(1)32, one monomer in the asymmetric unit, trimer around the threefold crystallographic axis.

Test [5] addresses Svi3-3_d19 E69A (environmental phage). Description: SEC; HiLoad 16/60 Superdex 75 pg, 25 mM Tris-HCl, 150 mM NaCl, pH 8.0; His-tagged protein eluted from Ni Sepharose.
Test [6] has as its target Svi3-3_d19 E69Q (environmental phage). The test is described as above.
Test [7] addresses Svi3-3_d19 E105Q (environmental phage). The test is described as above.

The values that follow come from paper PMC7877911 (eLife, 2021).

Sequence of T3 SAMase (P07693 whole entry): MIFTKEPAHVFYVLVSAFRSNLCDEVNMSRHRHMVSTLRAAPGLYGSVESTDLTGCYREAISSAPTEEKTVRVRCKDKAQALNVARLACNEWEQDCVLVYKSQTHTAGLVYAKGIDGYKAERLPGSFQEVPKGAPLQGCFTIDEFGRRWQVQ

Consider `C[S+](CC[C@H](N)C(=O)O)C[C@H]1O[C@@H](n2cnc3c(N)ncnc32)[C@H](O)[C@@H]1O` (stereo partly drawn) [SAM, S-(5’-Adenosyl)-L-methionine], for which the “TLC of reaction products; ion exchange chromatography” value in test [1] is “The same assay was performed with T3 SAMase and Orf1”.

Take His6-tagged Svi3-3_d19 (enzyme): the stoichiometry N in test [2] and in test [3] was 3 each time.

In the case of “Svi3-3_d19 (N-terminally truncated 146 amino acid construct of SAMase Svi3-3, hexahistidine tag removed) (enzyme)”, the stoichiometry N (usually the number of molecules, sites or subunits per partner or assembly) in test [4] was 3.

Svi3-3_d19 E69A (enzyme) returned a stoichiometry N in test [5] of 3.

Regarding Svi3-3_d19 E69Q (enzyme), the stoichiometry N in test [6] stood at 3.

In the case of Svi3-3_d19 E105Q (enzyme), the stoichiometry N in test [7] came to 3.
